These results are taken from publication PMC3185033, “Exportin 4 Interacts with Sox9 through the HMG Box and Inhibits the DNA Binding of Sox9” (PLoS ONE, 2011).

The test concerns the target T1, purified recombinant FLAG-Exp4 protein (human, UniProt Q9C0E2 1-1151).
T1 construct: human exportin 4, full-length cDNA assembled from three clones; also called recombinant Exp4; source: baculovirus system (pFASTBAC), purified recombinant
In words: pull-down; GST-fused HMG box fragments incubated with purified recombinant FLAG-Exp4 and glutathione Sepharose 2 hr at 4°C; Western blot with anti-Exp4; no RanGTP. The following applies: both partners purified.

T1 sequence (Q9C0E2 whole entry): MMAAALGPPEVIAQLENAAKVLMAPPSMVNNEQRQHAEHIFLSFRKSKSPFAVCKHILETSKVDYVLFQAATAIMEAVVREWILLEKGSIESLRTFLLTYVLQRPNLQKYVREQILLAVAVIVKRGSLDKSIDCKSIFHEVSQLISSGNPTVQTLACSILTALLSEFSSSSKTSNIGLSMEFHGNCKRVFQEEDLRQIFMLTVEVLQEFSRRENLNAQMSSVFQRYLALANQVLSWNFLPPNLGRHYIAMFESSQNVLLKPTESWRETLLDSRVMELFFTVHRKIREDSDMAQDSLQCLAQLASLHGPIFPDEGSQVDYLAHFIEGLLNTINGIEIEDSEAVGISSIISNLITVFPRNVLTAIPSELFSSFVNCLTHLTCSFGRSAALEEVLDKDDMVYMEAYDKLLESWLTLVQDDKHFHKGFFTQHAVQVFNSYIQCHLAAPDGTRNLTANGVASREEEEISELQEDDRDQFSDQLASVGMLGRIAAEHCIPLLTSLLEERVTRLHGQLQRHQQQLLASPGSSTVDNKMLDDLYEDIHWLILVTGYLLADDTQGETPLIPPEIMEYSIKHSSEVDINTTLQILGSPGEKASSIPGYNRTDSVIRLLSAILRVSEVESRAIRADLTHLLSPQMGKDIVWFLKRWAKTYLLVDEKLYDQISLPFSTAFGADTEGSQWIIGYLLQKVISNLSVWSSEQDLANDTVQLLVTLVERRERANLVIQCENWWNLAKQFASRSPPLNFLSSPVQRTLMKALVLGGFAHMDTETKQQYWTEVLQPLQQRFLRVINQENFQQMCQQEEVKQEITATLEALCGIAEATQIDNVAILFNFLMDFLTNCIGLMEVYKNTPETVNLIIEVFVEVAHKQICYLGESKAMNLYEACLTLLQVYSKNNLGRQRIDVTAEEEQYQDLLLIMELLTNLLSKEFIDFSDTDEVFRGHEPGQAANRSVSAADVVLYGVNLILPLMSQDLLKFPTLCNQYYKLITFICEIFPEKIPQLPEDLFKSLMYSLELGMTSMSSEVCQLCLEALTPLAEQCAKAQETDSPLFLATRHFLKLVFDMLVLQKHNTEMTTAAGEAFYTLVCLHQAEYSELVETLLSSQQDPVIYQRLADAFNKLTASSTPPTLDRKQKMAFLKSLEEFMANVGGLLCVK

B1: GST-tagged HMG box fragment of Sox2 (33–123 a.a.) (domain or fragment)
chain: not shown
notes: source: E. coli, prepared on glutathione-Sepharose
With B1, the binding result is “binds”.

B2: GST-fused Sox9 region #2 (95–186 a.a.), HMG box domain (domain or fragment, mouse, UniProt Q04887 95-186, looked up)
chain: VNGSSKNKPHVKRPMNAFMVWAQAARRKLADQYPHLHNAELSKTLGKLWRLLNESEKRPFVEEAERLRVQHKKDHPDYKYQPRRRKSVKNGQ
notes: cloned in pGEX-6P-1; also called GST-tagged HMG box fragment of Sox9
With B2, the binding result was “binds”.
